The record followed here is FireProtDB (doi:10.1021/bi00105a011).

Sequences and labels used below:
B1: Lysozyme C, P61626 (parent)
chain: MKALIVLGLVLLSVTVQGKVFERCELARTLKRLGMDGYRGISLANWMCLAKWESGYNTRATNYNAGDRSTDYGIFQINSRYWCNDGKTPGAVNACHLSCSALLQDNIADAVACAKRVVRDPQGIRAWVAWRNRCQNRDVRQYVQGCGV

In the data set the parent is B1. To be noted: Homo sapiens; pH 3; 25 °C; GdnHCl; CD; glycine-HCl 40 mM; reversible: yes (100%); structure 1LZ1; whole UniProt chain shown.

For the variant MKALIVLGLVLLSVTVQGKVFERCELARTLKRLGMDGYRGISLANWMCLAKWESGYNTRATNYNAGDRSTDYGIFQINSRYWCNDGKTPGAVNACHLSCSALLQDNIADAVACAKRVVRDPQGIRAWPAWRNRCQNRDVRQYVQGCGV [V128P], the “ddG of mutation (higher = less stable)” value was -2.4 kcal/mol, the denaturant m value was determined as 6.69 kcal/mol/M, the “denaturant midpoint (higher = more stable)” value (“denaturant midpoint” below) came to 3.05 M and the unfolding free energy turned out to be 12.1 kcal/mol.
The matching figures for MKALIVLGLVLLSVTVQGKVFERCELARTLKRLGMDGYRGISLANWMCLAKWESGYNTRATNYNAGDRSTDYGIFQINSRYWCNDGKTGGAVNACHLSCSALLQDNIADAVACAKRVVRDGQGIRAWVAWRNRCQNRDVRQYVQGCGV [P89G P121G]: 1.1 kcal/mol, 5.48 kcal/mol/M, 2.64 M and 8.6 kcal/mol.
As for MKALIVLGLVLLSVTVQGKVFERCELARTLKRLGMDGYRGISLANWMCLAKWESGYNTRATNYNAGDRSTDYGIFQINSRYWCNDGKTPGAVNACHLSCSALLQDNIADAVACAKRVVRDGQGIRAWVAWRNRCQNRDVRQYVQGCGV [P121G], the “ddG of mutation (higher = less stable)” value was 0 kcal/mol, the denaturant m value was 5.55 kcal/mol/M, the “denaturant midpoint” value is 2.95 M and the unfolding free energy is 9.7 kcal/mol.
The matching figures for MKALIVLGLVLLSVTVQGKVFERCELARTLKRLGMDGYRGISLANWMCLAKWESGYNTRATNYNAGDRSTDYGIFQINSRYWCNDGKTPGAVNACHLSCSALLQDNIAPAVACAKRVVRDPQGIRAWVAWRNRCQNRDVRQYVQGCGV [D109P]: 0.8 kcal/mol, 5.42 kcal/mol/M, 2.78 M and 8.9 kcal/mol.
The matching figures for MKALIVLGLVLLSVTVQGKVFERCELARTLKRLGMDGYRGISLANWMCLAKWESGYNTRATNYNPGDRSTDYGIFQINSRYWCNDGKTPGAVNACHLSCSALLQDNIADAVACAKRVVRDPQGIRAWVAWRNRCQNRDVRQYVQGCGV [A65P]: -1.1 kcal/mol, 5.5 kcal/mol/M, 3.3 M and 10.8 kcal/mol.
For MKALIVLGLVLLSVTVQGKVFERCELARTLKRLGMDGYRGISLANWMCLAKWESGYNTRATNYNAGDRSTDYGIFQINSRYWCNDGKTGGAVNACHLSCSALLQDNIADAVACAKRVVRDPQGIRAWVAWRNRCQNRDVRQYVQGCGV [P89G], the “ddG of mutation (higher = less stable)” value was 1.2 kcal/mol, the denaturant m value came to 5.43 kcal/mol/M, the “denaturant midpoint” value was determined as 2.63 M and the unfolding free energy was determined as 8.5 kcal/mol.
